Data on two proteins can be found in article PMC10666288, “Unveiling the Catalytic Mechanism of a Processive Metalloaminopeptidase” (Biochemistry, 2023).

Data set [1] deals with the molecule itself. Description: crystal structure; uncleaved PaPepA, sitting drop, 20 °C, PEG 3350 and ammonium nitrate; three crystal forms: apo, with MnCl2, with bestatin and MnCl2.
Data set [2] deals with the molecule itself. Description: dynamic light scattering; PaPepA in solution; conditions not shown (Figure S14).

B1: PepA from P. aeruginosa strain PA14 (PaPepA), uncleaved His6-tagged protein used for crystallography (enzyme, Pseudomonas aeruginosa strain PA14)
chain: MEFLVKSVRPETLKTATLVLAVGEGRKLGASAKAVDDATGGAISAVLKRGDLAGKVGQTLLLQSLPNLKAERVLLVGAGKERELGDRQYRKLASAVLSTLKGLAGADAALALGDLAVKGRGAHAKARLLVETLADGLYVFDRYKSQKAEPLKLKKLTLLADKADSAAVEQGSKEAQAIANGMALTRDLGNLPPNVCHPTFLGEQAKGLAKEFKSLKVEVLDEKKLRELGMGSFLAVAQGSDQPPRLIILQYNGAKKDQAPHVLVGKGITFDTGGISLKPGLGMDEMKFDMCGAASVFGTFRAVLELQLPINLVGLLACAENMPSGGATRPGDIVTTMSGQTVEILNTDAEGRLVLCDALTYAERFKPQSVIDIATLTGACIVALGSNTSGLMGNNEALVRQLLKAGEFADDRAWQLPLFDEYQEQLDSPFADIANIGGPKAGTITAGCFLSRFAKKYHWAHLDIAGTAWISGGKDKGATGRPVPLLTQYLLERAK
notes: Leucine aminopeptidase PepA, Pseudomonas aeruginosa strain PA14, PA14_14470, UniProt Q02RY8; also called leucine aminopeptidase from Pseudomonas aeruginosa; uncleaved PaPepA; source: E. coli BL21(DE3), purified (HisTrap FF nickel column, dialysed; not TEV-cleaved); not shown: His6 (followed by a linker and a TEV protease cleavage site), N-terminal, kept
Regarding B1, the stoichiometry N (usually the number of molecules, sites or subunits per partner or assembly) in data set [1] stood at 6.

B2: PepA from P. aeruginosa strain PA14 (PaPepA), protein used for dynamic light scattering (enzyme, Pseudomonas aeruginosa strain PA14)
chain: MEFLVKSVRPETLKTATLVLAVGEGRKLGASAKAVDDATGGAISAVLKRGDLAGKVGQTLLLQSLPNLKAERVLLVGAGKERELGDRQYRKLASAVLSTLKGLAGADAALALGDLAVKGRGAHAKARLLVETLADGLYVFDRYKSQKAEPLKLKKLTLLADKADSAAVEQGSKEAQAIANGMALTRDLGNLPPNVCHPTFLGEQAKGLAKEFKSLKVEVLDEKKLRELGMGSFLAVAQGSDQPPRLIILQYNGAKKDQAPHVLVGKGITFDTGGISLKPGLGMDEMKFDMCGAASVFGTFRAVLELQLPINLVGLLACAENMPSGGATRPGDIVTTMSGQTVEILNTDAEGRLVLCDALTYAERFKPQSVIDIATLTGACIVALGSNTSGLMGNNEALVRQLLKAGEFADDRAWQLPLFDEYQEQLDSPFADIANIGGPKAGTITAGCFLSRFAKKYHWAHLDIAGTAWISGGKDKGATGRPVPLLTQYLLERAK
notes: Leucine aminopeptidase PepA, Pseudomonas aeruginosa strain PA14, PA14_14470, UniProt Q02RY8; probably the cleaved one; also called leucine aminopeptidase from Pseudomonas aeruginosa; source: E. coli BL21(DE3), purified (HisTrap FF nickel column)
Take B2: the “stoichiometry N” value in data set [2] was 6.
